Measurements as given in patent US6613746 (GENERAL HOSPITAL, dated 2003).

T1: ELAM-Rg, soluble ELAM-1-IgG1 chimera (ELAM-1 extracellular domain fused to hinge, CH2 and CH3 domains of … (human, UniProt P16581 22-556, limits assumed))
T1 construct: extracellular domain; Made in COS cells, recovered on protein A-agarose; appeared as disulfide-linked dimers; In adhesion assays it was captured on dishes coated with goat anti-human IgG; also called ELAM-1-Rg; ELAM-1-IgG1 fusion protein; not shown: human IgG1 hinge, CH2 and CH3 domains (genomic fragment of Aruffo et al., Cell 61:1303, 1990)
T1 sequence (looked up): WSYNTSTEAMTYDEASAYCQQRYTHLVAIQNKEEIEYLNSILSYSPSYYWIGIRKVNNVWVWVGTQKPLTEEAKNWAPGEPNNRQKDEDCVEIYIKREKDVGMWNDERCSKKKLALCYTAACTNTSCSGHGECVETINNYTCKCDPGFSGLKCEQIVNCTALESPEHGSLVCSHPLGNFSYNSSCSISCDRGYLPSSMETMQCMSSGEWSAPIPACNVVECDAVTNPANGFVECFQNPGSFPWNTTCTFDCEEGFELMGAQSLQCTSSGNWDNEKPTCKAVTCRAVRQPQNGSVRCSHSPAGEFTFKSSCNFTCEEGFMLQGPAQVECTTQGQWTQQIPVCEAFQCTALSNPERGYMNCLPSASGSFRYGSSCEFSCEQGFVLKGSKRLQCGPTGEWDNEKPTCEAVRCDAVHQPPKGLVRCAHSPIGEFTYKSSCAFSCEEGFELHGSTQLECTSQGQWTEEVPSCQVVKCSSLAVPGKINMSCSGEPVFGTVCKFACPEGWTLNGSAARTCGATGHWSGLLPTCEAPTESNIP

B1: bovine α1-acid glycoprotein fucosylated in vitro with amniotic fluid α(1,3)fucosyltransferase and GDP-fucose (other, UniProt Q3SZR3 19-202, looked up)
chain: QSPECANLMTVAPITNATMDLLSGKWFYIGSAFRNPEYNKSARAIQAAFFYLEPRHAEDKLITREYQTIEDKCVYNCSFIKIYRQNGTLSKVESDREHFVDLLLSKHFRTFMLAASWNGTKNVGVSFYADKPEVTQEQKKEFLDVIKCIGIQESEIIYTDEKKDACGPLEKQHEEERKKETEAS
modifications: N-linked glycans fucosylated in vitro (sialyl-Le^X determinants)
notes: Adsorbed to plastic or to microtiter wells; also called in vitro-fucosylated α1-acid glycoprotein; enzymatically-fucosylated α1-AGP
B2: ELAM-1 (form in this assay not stated) (receptor, UniProt P16581 22-556, looked up)
chain: T1 sequence (looked up)

Assays:
[1] = target: T1, ELAM-Rg, soluble ELAM-1-IgG1 chimera …; test: solid phase: α1-AGP adsorbed to wells, ELAM-Rg at 1 µg/ml, radioiodinated goat anti-human IgG, gamma counter
Procedure: Amniotic fluid fucosyltransferase was isolated by affinity chromatography and evaluated for its ability to convert α_1-AGP into an ELAM-1 ligand as follows. α(1,3) fucosyltransferase was isolated from concentrated amniotic fluid by fetuin-agarose chromatography as previously described in Hanisch et al. (*Carbohydr. Res.* 178:23, 1988) and Mitsakos et al. (*Biol. Chem. Hoppe-Seyler* 369:661, 1988). 0.8 μCi GDP^14C-fucose (225 Ci/mole) and 100 μg of bovine α_1-AGP (Sigma, St. Louis, Mo.) were added to a reaction mix containing 25 mM Tris-HCl pH 7.0, 35 mM MgCl_2 and 1 mM ATP in a final volume of 120 μl. The reaction was allowed to proceed for 24 h. at 37°, at which time approximately 10% of the ^14C-labeled fucose had been incorporated into TCA-insoluble material. Unincorporated label was removed by centrifugal ultrafiltration (Centricon 10, Amicon, Danvers, Mass.). 20 μl of a 1:5 dilution of the labelled material, or 10 μl of a 1:5 dilution of a similarly constituted reaction mixture lacking labelled GDP-fucose, was adsorbed to plastic dishes (as described above) or to 96 well microtiter plates (Falcon 3911, Becton Dickinson, Oxnard, Calif.). […] Following washing, labelled antibody binding was measured in a gamma counter. Results shown in FIG. 9 are expressed as the mean±standard deviation of quadruplicate determinations and are representative of two independent experiments.

[2] = target: native constant domain of human IgG1 coexpressed with fucosyltransferase (human, UniProt P01857-1 99-330 = IgG part); test: not described

Row | Binder | binding result [1] | binding result [2]
1 | B1 | binds | –
2 | B2 | – | no binding
